Measurements as given in patent publication US12410262B2, “Peptide conjugates of cytotoxins as therapeutics” (Cybrexa 2, Inc., priority 2019, dated 2025).

Columns and labels:
HCT116 = test: cells; format: cell-based, human; conditions: 96 h
Procedure, shortened: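 DLD-1 WT (2500/well), FaDu and HeLa (5000/well) and HCT116 (3000/well) were grown in 10% FBS media and dosed in triplicate 24 h after plating. After 96 h of drug exposure at 37 °C, cells were fixed, Hoechst-stained and counted by imaging; percent growth delay was calculated versus untreated controls.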

[1] = Bone marrow toxicity study in a mouse model; format: in vivo, athymic nude Foxn^nu mice; conditions: 2.6 and 5.2 μmoles/kg (10, 20 mg/kg) IP once daily for 4 days
Experimental: Six-week-old female athymic nude Foxn^nu mice were obtained from Taconic Labs (Cat #NCRNU-F) and were housed 5 per cage on Alpha-Dri bedding in a disposable caging system (Innovive). Human HCT116 cancer cells derived from colorectal carcinoma were diluted 1:1 in Phenol Red-free Matrigel and subcutaneously implanted into the left flank of each mouse at a density of 2.5×10^6 cells in 100 μL. When xenografts reached a minimal volume of 200 mm^3, mice were administered intraperitoneal doses of vehicle or 2.6 or 5.2 μmoles/kg of either unconjugated exatecan (equivalent to 1.15 or 2.3 mg/kg exatecan, respectively) or Compound 11 (equivalent to 10 or 20 mg/kg Compound 11, respectively). Compounds were administered once daily for 4 days.
Tumor bearing mice were euthanized by cervical dislocation 6 hours after the last dose. Femurs were removed, and bone marrow was extruded into 50 mL conical tubes by flushing the bones with a 23-gauge needle fitted on a 5 cc syringe containing PBS+2% fetal bovine serum. Bone marrow was homogenized by gentle pipetting and filtered through 100 μm nylon mesh filters and cells were pelleted by centrifugation at 1200 rpm for 5 minutes at 4° C. Red blood cells were lysed with 3 mL of lysis buffer for 2 minutes at room temperature. […] Cell pellets were suspended in 5 mL of PBS and cell count was assessed by trypan blue exclusion. […]

[2] = Glutathione cleavage study; format: in vitro ADME; conditions: Tris buffer with 10 mM glutathione, Glutathione Challenge (10 mM), 100 μM conjugate, Tris pH 7.5, 37° C.
Procedure, shortened: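 Conjugate stocks at 20 mM in 100% DMSO were diluted in 100 mM Tris, pH 7.5, to a final 100 μM. Freshly made glutathione was added to 10 mM, and samples were incubated at 37° C. for up to 24 hrs. Samples were extracted with phosphoric acid and acetonitrile/0.1% TFA, centrifuged, and analyzed by HPLC, with peak areas compared to the time-0 conjugate peak.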

[3] = Plasma pharmacokinetics of Compound 11 in a rat model; format: in vivo, Sprague Dawley rats; conditions: single IV dose 5 mg/kg
Experimental: Male Sprague Dawley rats underwent jugular vein cannulation and insertion of a vascular access button (VAB, Instech Labs Cat #VABR1B/22) at Envigo Labs prior to shipment. Magnetic, aluminum caps (Instech Labs Cat #Cat #VABRC) were used to protect the access port for the jugular catheters allowing the animals to be housed 2 per cage on corn cob bedding for 4-5 days prior to the study. Rats were administered a single intravenous dose of 5 mg/kg Compound 11 prepared in a vehicle of 5% mannitol in citrate buffer. At 1, 2, 4, 8, 24 and 30 hours following compound administration, blood (250 μL) was collected into K2EDTA filled microtainers from fed rats. Plasma was isolated by centrifugation and 100 μL aliquots were transferred to 96-well polypropylene plates on dry ice. Samples were stored at −80° C. until processed for quantification of total peptide by ELISA and released exatecan by LC-MS/MS.
96-Well plates were coated with 100 μL/well of 0.1 μM BSA-labelled peptide prepared in 0.2 M Carbonate-Bicarbonate Buffer, pH 9.4 and incubated overnight at 4° C. […] Luminescence was read from the plate on a BioTek Cytation 5 plate reader.
For quantification of exatecan, a 20 μL plasma sample was added to a polypropylene autosampler vial. […] The samples were centrifuged for 5-10 minutes at 3700 rpm then analyzed via liquid chromatography tandem mass spectrometry (LC-MS/MS).

SMILES: CC[C@@]1(O)C(=O)OCc2c1cc1n(c2=O)Cc2c-1nc1cc(F)c(C)c3c1c2[C@@H](NC(=O)O[C@H]1CCCC[C@@H]1SSC[C@H](NC(=O)[C@H](Cc1c[nH]c2ccccc12)NC(=O)[C@H](CC(C)C)NC(=O)[C@H](CC(C)C)NC(=O)[C@H](CC(=O)O)NC(=O)[C@H](CC(C)C)NC(=O)[C@H](CC(C)C)NC(=O)[C@H](CC(C)C)NC(=O)[C@@H](NC(=O)[C@H](CC(=O)O)NC(=O)[C@@H](NC(=O)[C@@H]1CCCN1C(=O)[C@H](Cc1ccccc1)NC(=O)[C@H](CC(C)C)NC(=O)[C@H](CC(C)C)NC(=O)[C@H](CC(=O)O)NC(=O)[C@H](CC(C)C)NC(=O)[C@H](Cc1ccc(O)cc1)NC(=O)[C@H](C)NC(=O)[C@H](CCCNC(=N)N)NC(=O)[C@H](Cc1c[nH]c2ccccc12)NC(=O)[C@@H]1CCCN1C(=O)[C@H](CC(N)=O)NC(=O)[C@H](CCC(N)=O)NC(=O)[C@H](CC(=O)O)NC(=O)[C@H](CC(=O)O)NC(=O)[C@H](C)N)[C@@H](C)O)[C@@H](C)O)C(=O)NCC(=O)O)CC3 [Compound 11]
- IC50 (HCT116): 22.6 nM
- bone marrow toxicity (total bone marrow counts from femurs) [1]: did not display the bone marrow toxicity
- remaining at 4 h, 100 µM ([2]; 4 h): 50.1%
- remaining at 24 h, 100 µM ([2]; 24 h): 10.2%
- stable in plasma [3]: at least 30 h
- exatecan warhead released in circulation ([3]; after 30 h): less than 0.002%
